Data as given in US20220251241A1 (NGM BIOPHARMACEUTICALS, published 2022).

Key:
[1] = molecular target: T1, HTRA1 (construct not given) (Homo sapiens (Human), UniProt Q92743 23-480, limits assumed); experiment: cell-based or functional assay
HTRA1-CAT P193A mutant = HTRA1-CAT P193A mutant (human, UniProt Q92743 156-364); experiment: ELISA
Protocol: (§1) A series of mutated HTRA1-catalytic domain (HTRA1-CAT; amino acids 156-364 of SEQ ID NO:1) proteins containing single amino acid substitutions were generated by standard methods (e.g., site directed mutagenesis). Antibody 24F7 was tested by ELISA for binding to these mutant HTRA1-CAT proteins as well as a wild-type HTRA1 peptide consisting of amino acids […] (SEQ ID NO:92; R190—V201 of SEQ ID NO:1).

HTRA1-CAT R190A mutant = HTRA1-CAT R190A mutant (human, UniProt Q92743 156-364); experiment: ELISA
Protocol: as §1

[2] = molecular target: T2, wild-type HTRA1 peptide RKLPFSKREVPV (R190-V201 of SEQ ID NO:1) (human); experiment: ELISA
T2 construct: also called Wild type peptide (R190 - V201)
T2 peptide: RKLPFSKREVPV
Protocol: as §1

HTRA1-CAT R197A mutant = HTRA1-CAT R197A mutant (human, UniProt Q92743 156-364); experiment: ELISA
Protocol: as §1

HTRA1-CAT F194A mutant = HTRA1-CAT F194A mutant (human, UniProt Q92743 156-364); experiment: ELISA
Protocol: as §1

[3] = molecular target: human delta N-HTRA1 (amino acids 156-480 of SEQ ID NO:1) (human, UniProt Q92743 156-480); experiment: SPR (Biacore); antibody captured by anti-Fc, human delta N-HTRA1 injected; temperature of this table not stated
Protocol: (§2) The binding affinities of anti-HTRA1 antibodies to human HTRA1 were measured using a Biacore system (GE Healthcare Life Sciences). Briefly, anti-Fc antibody (Sigma-Aldrich) was immobilized on all four flow cells of a CMS chip using amine coupling reagents (GE Healthcare LifeSciences). Antibodies were captured on flow cells 2, 3, and 4 using flow cell 1 as a reference. Concentrations ranging from 3.3-10 nM of human delta N-HTRA1 were injected at a flow rate of 50 μL/min at 37° C. Kinetic data were collected over time and fit using the simultaneous global fit equation to yield affinity constants (KD values) for each antibody.

[4] = molecular target: T3, human HTRA1 full length protein (HTRA1-FL) (human, UniProt Q92743 23-480); experiment: SPR (Biacore), 37° C.
T3 construct: also called human HTRA1-FL
Protocol: as §2
The binding affinity of hz24F7.v2 to a HTRA1 full length protein (HTRA1-FL) or a HTRA1-CAT was determined using a Biacore system as described herein and compared with the binding affinity of the parental 24F7 antibody (see Table 9).

[5] = molecular target: T1, HTRA1 (construct not stated in the …); experiment: cell-based or functional assay; remark: listed apart in the source
[6] = molecular target: T1, HTRA1 (construct not stated in the …); experiment: SPR (Biacore), 25° C.
Protocol: The binding affinities of anti-HTRA1 antibodies to human HTRA1 were measured using a Biacore system (GE Healthcare Life Sciences). Briefly, anti-Fc antibody (Sigma-Aldrich) was immobilized on all four flow cells of a CMS chip using amine coupling reagents (GE Healthcare LifeSciences). Antibodies were captured on flow cells 2, 3, and 4 using flow cell 1 as a reference. […] Kinetic data were collected over time and fit using the simultaneous global fit equation to yield affinity constants (KD values) for each antibody.
(§3) SPR assays were set up using a Biacore system as described herein.

[7] = molecular target: T1, HTRA1 (construct not stated in the …); experiment: protease inhibition assay, casein substrate (EnzChek); apparent Ki (Ki^app)
From the text: (§4) Two enzymatic assays were used to characterize HTRA1 protease activity and evaluate inhibitory activity of anti-HTRA1 antibodies. EnzChek® Protease Assay Kit (ThermoFisher Scientific) was used following the manufacturer's instructions. This kit contains casein protein that is heavily labeled with the pH-insensitive green-fluorescent BOPIPY® FL dye that results in almost total quenching of the conjugate's fluorescence. Protease-catalyzed hydrolysis of labeled casein releases highly fluorescent BODIPY® FL dye-labeled peptides. The concomitant increase in fluorescence is proportional to protease activity.
Antibodies identified in HTRA1 binding assays were tested for their ability to inhibit HTRA1 protease activity. The range of antibody concentrations was tested to establish a dose response curve and determine IC₅₀ values.

[8] = molecular target: T1, HTRA1 (construct not stated in the …); experiment: cell-based or functional assay; remark: listed apart in the source
[9] = molecular target: endogenously expressed HTRA1 secreted by the human melanoma cell line C32 (human, UniProt Q92743 23-480); experiment: cell-based or functional assay
[10] = molecular target: T1, HTRA1 (construct not stated in the …); experiment: cell-based or functional assay; remark: listed apart in the source
[11] = molecular target: T1, HTRA1 (construct not stated in the …); experiment: SPR (Biacore), 37° C.
Protocol: as §2, §3

[12] = molecular target: T1, HTRA1 (construct not stated in the …); experiment: protease inhibition assay, H2-Opt peptide substrate; apparent Ki (Ki^app)
[13] = molecular target: T1, HTRA1 (construct not stated in the …); experiment: protease inhibition assay, casein substrate; apparent Ki (Ki^app)
From the text: as §4
To confirm that the humanized version of antibody 24F7 retained the ability to inhibit H IRA1 protease activity, hz24F7.v2 was assessed in casein and H2-Opt assays as described herein.

[14] = molecular target: T1, HTRA1 (construct not stated in the …); experiment: protease inhibition assay, H2-Opt peptide substrate (FRET); apparent Ki (Ki^app)

T3 sequence (Q92743 23-480): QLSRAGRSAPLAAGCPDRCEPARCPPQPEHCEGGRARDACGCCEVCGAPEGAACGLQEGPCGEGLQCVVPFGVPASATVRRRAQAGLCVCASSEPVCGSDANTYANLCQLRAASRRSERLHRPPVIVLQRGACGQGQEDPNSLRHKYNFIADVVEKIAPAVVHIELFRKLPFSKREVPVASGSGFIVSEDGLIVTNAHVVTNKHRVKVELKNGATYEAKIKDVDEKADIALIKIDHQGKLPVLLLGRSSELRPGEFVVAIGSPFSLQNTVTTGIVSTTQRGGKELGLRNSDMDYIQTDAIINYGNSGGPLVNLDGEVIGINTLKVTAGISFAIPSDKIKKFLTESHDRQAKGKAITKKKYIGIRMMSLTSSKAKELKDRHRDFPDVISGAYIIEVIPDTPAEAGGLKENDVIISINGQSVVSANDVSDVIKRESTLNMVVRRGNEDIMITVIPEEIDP
T1 sequence (Q92743 23-480 limits assumed): as the sequence (Q92743 23-480) above
human delta N-HTRA1 (amino acids 156-480 of SEQ ID NO:1), sequence (Q92743 156-480, stated change not applied): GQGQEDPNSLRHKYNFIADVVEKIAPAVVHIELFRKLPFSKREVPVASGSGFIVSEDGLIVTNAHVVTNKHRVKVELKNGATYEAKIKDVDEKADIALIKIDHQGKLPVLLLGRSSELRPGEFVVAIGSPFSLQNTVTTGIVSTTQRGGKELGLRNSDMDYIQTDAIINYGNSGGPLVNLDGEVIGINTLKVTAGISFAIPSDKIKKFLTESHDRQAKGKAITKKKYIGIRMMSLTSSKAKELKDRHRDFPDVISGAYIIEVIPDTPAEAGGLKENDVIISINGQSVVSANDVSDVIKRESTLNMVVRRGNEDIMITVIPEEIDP
HTRA1-CAT P193A mutant, sequence (Q92743 156-364 P193A): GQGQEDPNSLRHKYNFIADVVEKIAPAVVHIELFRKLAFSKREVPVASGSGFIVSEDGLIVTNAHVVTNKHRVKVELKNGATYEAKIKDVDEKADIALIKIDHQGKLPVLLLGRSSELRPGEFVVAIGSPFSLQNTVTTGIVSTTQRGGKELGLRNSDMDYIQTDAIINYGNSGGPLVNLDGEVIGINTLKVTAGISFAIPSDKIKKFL
endogenously expressed HTRA1 secreted by the human melanoma cell line C32, sequence (Q92743 23-480): as the sequence (Q92743 23-480) above
HTRA1-CAT F194A mutant, sequence (Q92743 156-364 F194A): as the sequence (Q92743 156-364 P193A) above, with A38P, F39A counted along it
HTRA1-CAT R197A mutant, sequence (Q92743 156-364 R197A): as the sequence (Q92743 156-364 P193A) above, with A38P, R42A counted along it
HTRA1-CAT R190A mutant, sequence (Q92743 156-364 R190A): as the sequence (Q92743 156-364 P193A) above, with R35A, A38P counted along it

B1: antibody 24F7 (antibody, V domains shown)
VH: QVQLQQSGAELVRPGASVKLSCKASGYTFTDYEMHWVKQTPVHGLEWIGAIDPETGGTAYNQKFKGKATLTADKSSSTAYMELRSLTSEDSAVYYCTREGYSYDGGGYYFDYWGQGTTLTVSS
VL: QIVLTQSPAIMSASPGEKVTMTCSVSSSVSYMYWYQQKPGSSPRLLIYDTSNLASGVPVRFSGSGSGTSYSLTISRMEAEDAATYYCQQWSSYPTFGGGTKLEIK
notes: Mouse hybridoma monoclonal antibody; also called parental 24F7 antibody
[1]
  IC50, Protease Assay-Casein substrate: 0.15 nM
  IC50, Protease Assay-H2-Opt peptide: 0.12 nM
HTRA1-CAT P193A mutant
  binding result: binds
HTRA1-CAT R190A mutant
  binding result: no binding
[2]
  binding result: no binding
HTRA1-CAT R197A mutant
  binding result: no binding
HTRA1-CAT F194A mutant
  binding result: binds
[3]
  Kd: 0.012 nM
  koff: 8.5e-05 s⁻¹
  kon: 7.4e+06 M⁻¹ s⁻¹
[4]
  Kd: 0.047 nM
  koff: 8.6e-05 s⁻¹
  kon: 1.8e+06 M⁻¹ s⁻¹
[5]
  IC50 (read off the curve), HTRA1 protease assay, casein substrate 0.05 ug/ml (inverted triangles): ~0.2 nM
  IC50 (read off the curve), HTRA1 protease assay, casein substrate 0.1 ug/ml (triangles): ~0.2 nM
  IC50 (read off the curve), HTRA1 protease assay, casein substrate 0.2 ug/ml (circles): ~0.2 nM
  IC50 (read off the curve), HTRA1 protease assay, casein substrate 0.3 ug/ml (squares): ~0.2 nM
[6]
  Kd: 0.03 nM
  koff: 5e-05 s⁻¹
  kon: 1.6e+06 M⁻¹ s⁻¹
[7]
  Ki: 0.054 nM
[8]
  IC50 of inhibition of HTRA1 protease activity, H2-Opt peptide as substrate: 0.164 nM
  IC50 of inhibition of HTRA1 protease activity, casein as substrate: 0.145 nM
[9]
  IC50 of inhibition of protease activity, EnzChek protease assay with C32 conditioned media: 0.118 nM
[10]
  IC50, Casein Assay: 0.35 nM
  IC50, H2-Opt Assay: 0.17 nM
[11]
  Kd: 0.021 nM
  koff: 8.2e-05 s⁻¹
  kon: 4e+06 M⁻¹ s⁻¹
[12]
  Ki: 0.076 nM
[13]
  Ki: 0.099 nM
[14]
  Ki: 0.118 nM
